Data from patent US20250002605A1 (WUHAN YZY BIOPHARMA, published 2025).

T1: human EpCAM antigen (SB, Cat: 10694-H08H) (human, UniProt P16422 24-265)
T1 construct: Bought antigen immobilised on a CM5 chip
T1 sequence (looked up): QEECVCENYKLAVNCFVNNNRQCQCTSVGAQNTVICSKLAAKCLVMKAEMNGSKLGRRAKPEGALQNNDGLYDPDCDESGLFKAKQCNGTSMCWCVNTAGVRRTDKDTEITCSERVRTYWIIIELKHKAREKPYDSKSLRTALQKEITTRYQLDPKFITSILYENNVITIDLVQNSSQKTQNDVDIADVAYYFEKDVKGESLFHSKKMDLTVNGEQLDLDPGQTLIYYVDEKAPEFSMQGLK

T2: human EpCAM on the cell surface (human, UniProt P16422 24-314)
T2 sequence (looked up): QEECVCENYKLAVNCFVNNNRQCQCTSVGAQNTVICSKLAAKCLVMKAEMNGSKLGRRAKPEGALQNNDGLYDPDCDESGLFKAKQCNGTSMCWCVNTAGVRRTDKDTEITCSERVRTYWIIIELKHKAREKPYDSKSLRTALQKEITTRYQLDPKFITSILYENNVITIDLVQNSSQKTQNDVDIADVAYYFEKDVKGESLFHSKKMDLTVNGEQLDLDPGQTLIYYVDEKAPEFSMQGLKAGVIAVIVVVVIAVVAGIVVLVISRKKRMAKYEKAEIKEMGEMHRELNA

B1: M701A (bispecific antibody, human IgG1, kappa)
light: ELVMTQSPSSLTVTAGEKVTMSCKSSQSLLNSGNQKNYLTWYQQKPGQPPKLLIYWASTRESGVPDRFTGSGSGTDFTLTISSVQAEDLAVYYCQNDYSYPLTFGAGTKLEIKRTVAAPSVFIFPPSDEQLKSGTASVVCLLNNFYPREAKVQWKVDNALQSGNSQESVTEQDSKDSTYSLSSTLTLSKADYEKHKVYACEVTHQGLSSPVTKSFNRGEC
heavy: EVQLLEQSGAELVRPGTSVKISCKASGYAFTNYWLGWVKQRPGHGLEWIGDIFPGSGNIHYNEKFKGKATLTADKSSSTAYMQLSSLTFEDSAVYFCARLRNWDEPMDYWGQGTTVTVSSASTKGPSVFPLAPSSKSTSGGTAALGCLVKDYFPEPVTVSWNSGALTSGVHTFPAVLQSSGLYSLSSVVTVPSSSLGTQTYICNVNHKPSNTKVDKKVEPKSCDKTHTCPPCPAPELLGGPSVFLFPPKPKDTLMISRTPEVTCVVVDVSHEDPEVKFNWYVDGVEVHNAKTKPREEQYNSTYRVVSVLTVLHQDWLNGKEYKCKVSNKALPAPIEKTISKAKGQPREPQVYTLPPSRDELTKNQVSLWCLVKGFYPSDIAVEWESNGQPENNYDTTPPVLDSDGSFFLYSDLTVDKSRWQQGNVFSCSVMHEALHNHYTQKSLSLSPGK
chain: not shown
notes: YBODY format; also called bispecific antibody M701A
B2: M701G (bispecific antibody, human IgG1, kappa)
light: B1 light
heavy: B1 heavy
chain: EVQLVESGGGLVQPGGSLRLSCAASGYSFTGYTMNWVRQAPGKGLEWVALINPYKGVSTYNQKFKDRFTISVDKSKNTAYLQMNSLRAEDTAVYYCARSGYYGDSDWYFDVWGQGTLVTVSSGGGGSGGGGSGGGGSDIQMTQSPSSLSASVGDRVTITCRASQDIRNYLNWYQQKPGKAPKLLIYYTSRLESGVPSRFSGSGSGTDYTLTISSLQPEDFATYYCQQGNTLPWTFGQGTKVEIKGAAAEPKSCDKTHTCPPCPAPELLGGPSVFLFPPKPKDTLMISRTPEVTCVVVDVSHEDPEVKFNWYVDGVEVHNAKTKPREEQYNSTYRVVSVLTVLHQDWLNGKEYKCKVSNKALPAPIEKTISKAKGQPREPQVYTLPPSRDELTKNQVSLTCRVKGFYPSDIAVEWESNGQPENNYKTTPPVLKSDGSFFLASKLTVDKSRWQQGNVFSCSVMHEALHNHYTQKSLSLSPGK
notes: YBODY format; also called bispecific antibody M701G
B3: M701 (bispecific antibody, human IgG1, kappa)
light: B1 light
heavy: B1 heavy
chain: not shown
notes: also called bispecific antibody M701
B4: M701B (bispecific antibody, human IgG1, kappa)
light: B1 light
heavy: B1 heavy
chain: QVQLVESGGGVVQPGRSLRLSCAASGFTFSTYAMNWVRQAPGKGLEWVARIRSKYNNYATYYADSVKDRFTISRDDSKNTLYLQMNSLRAEDTAVYYCARHGNFGNSYVSWFAYWGQGTLVTVSSGGGGSGGGGSGGGGSQTVVTQEPSLTVSPGGTVTLTCRSSTGAVTTSNYANWVQQKPGQAPRGLIGGTNKRAPGVPARFSGSLLGGKAALTLSGVQPEDEAEYYCALWYSNLWVFGGGTKVEIKGAAAEPKSCDKTHTCPPCPAPELLGGPSVFLFPPKPKDTLMISRTPEVTCVVVDVSHEDPEVKFNWYVDGVEVHNAKTKPREEQYNSTYRVVSVLTVLHQDWLNGKEYKCKVSNKALPAPIEKTISKAKGQPREPQVYTLPPSRDELTKNQVSLTCRVKGFYPSDIAVEWESNGQPENNYKTTPPVLKSDGSFFLASKLTVDKSRWQQGNVFSCSVMHEALHNHYTQKSLSLSPGK
notes: YBODY format; also called bispecific antibody M701B
B5: M701K (bispecific antibody, human IgG1, kappa)
light: B1 light
heavy: EVQLLEQSGAELVRPGTSVKISCKASGYAFTNYWLGWVKQRPGHGLEWIGDIFPGSGNIHYNEKFKGKATLTADKSSSTAYMQLSSLTFEDSAVYFCARLRNWDEPMDYWGQGTTVTVSSASTKGPSVFPLAPSSKSTSGGTAALGCLVKDYFPEPVTVSWNSGALTSGVHTFPAVLQSSGLYSLSSVVTVPSSSLGTQTYICNVNHKPSNTKVDKKVEPKSCDKTHTCPPCPAPPVAGPSVFLFPPKPKDTLMISRTPEVTCVVVDVSHEAPEVQFNWYVDGVEVHNAKTKPREEQFNSTFRVVSVLTVVHQDWLNGKEYKCKVSNKGLPAPIEKTISKTKGQPREPQVYTLPPCRDELTKNQVSLWCLVKGFYPSDIAVEWESNGQPENNYKTTPPVLDSDGSFFLYSKLTVDKSRWQQGNVFSCSVMHEALHNHYTQKSLSLSPGK
chain: QVQLVESGGGVVQPGRSLRLSCAASGFTFSTYAMNWVRQAPGKGLEWVARIRSKYNNYATYYADSVKDRFTISRDDSKNTLYLQMNSLRAEDTAVYYCARHGNFGNSYVSWFAYWGQGTLVTVSSGGGGSGGGGSGGGGSQTVVTQEPSLTVSPGGTVTLTCRSSTGAVTTSNYANWVQQKPGQAPRGLIGGTNKRAPGVPARFSGSLLGGKAALTLSGVQPEDEAEYYCALWYSNLWVFGGGTKVEIKGAAAEPKSCDKTHTCPPCPAPPVAGPSVFLFPPKPKDTLMISRTPEVTCVVVDVSHEAPEVQFNWYVDGVEVHNAKTKPREEQFNSTFRVVSVLTVVHQDWLNGKEYKCKVSNKGLPAPIEKTISKTKGQPREPQVCTLPPSRDELTKNQVSLSCAVKGFYPSDIAVEWESNGQPENNYKTTPPVLDSDGSFFLVSKLTVDKSRWQQGNVFSCSVMHEALHNHYTQKSLSLSPGK
notes: YBODY format; also called bispecific antibody M701K
B6: M701J (bispecific antibody, human IgG1, kappa)
light: B1 light
heavy: B5 heavy
chain: not shown
notes: YBODY format; also called bispecific antibody M701J

Assays:
[1] = target: T1, human EpCAM antigen (SB, Cat: …); assay: SPR (Biacore T200), antigen amine-coupled on CM5, antibody as analyte, 1:1 fit; D0 sample
[2] = target: T2, human EpCAM on the cell surface; assay: cell-based or functional assay
CD3 on Jurkat cells [3] = assay: cell-based or functional assay
[4] = target: T2, human EpCAM on the cell surface; assay: cell-based or functional assay; remark: listed apart in the source
CD3 on Jurkat cells [5] = assay: cell-based or functional assay; remark: listed apart in the source
[6] = target: T1, human EpCAM antigen (SB, Cat: …); assay: SPR (Biacore T200), antigen amine-coupled on CM5, antibody as analyte, 1:1 fit; D14 sample after 14 days at 40 C
[7] = target: T2, human EpCAM on the cell surface; assay: flow cytometry (FACS) on HCT116 cells, PE anti-human IgG Fc detection
[8] = target: T3, human CD3 antigen (SB, Cat: CT038-H2508H) (human, UniProt P07766 23-126; P04234 22-105); assay: SPR (Biacore T200), antigen amine-coupled on CM5, antibody as analyte, 1:1 fit; D0 sample
[9] = target: T3, human CD3 antigen (SB, Cat: …); assay: SPR (Biacore T200), CD3 antigen amine-coupled on CM5, antibody as analyte, 1:1 fit
[10] = target: T3, human CD3 antigen (SB, Cat: …); assay: SPR (Biacore T200), antigen amine-coupled on CM5, antibody as analyte, 1:1 fit; D14 sample after 14 days at 40 C

Binder	Kd [1] [nM]	cell bridging of HCT116 and Jurkat cells (CFSE/PKH26 double-positive cells, flow cytometry) [2]	cell bridging of HCT116 and Jurkat cells (CFSE/PKH26 double-positive cells, flow cytometry) (CD3 on Jurkat cells [3])	EC50 (read off the curve), cell bridging of HCT116 and Jurkat [panel C] [4] [ng/mL]	EC50 (read off the curve), cell bridging of HCT116 and Jurkat [panel C] (CD3 on Jurkat cells [5]) [ng/mL]	Kd [6] [nM]	EC50 [7] [nM]	Kd [8] [nM]	killing EC50 (PBMC effector cells, HCT116 target cells) [2] [ng/mL]	Kd [9] [nM]	Kd [10] [nM]
B1	17.1	~40 % of the total PKH26-positive cells	~40 % of the total PKH26-positive cells	~10	~10	17.3	3.56	–	–	–	–
B2	19.7	–	–	–	–	–	–	18.8	–	–	–
B3	–	–	–	–	–	–	10.5	–	69.2	–	–
B4	20	~40 % of the total PKH26-positive cells	~40 % of the total PKH26-positive cells	~10	~10	22.6	3.72	28.3	–	28.3	31.5
B5	21.1	–	–	–	–	22.6	5.65	28.8	–	28.8	30.6
B6	18.2	–	–	–	–	18.7	3.78	–	–	–	–
